Experimental data published in article PMC4164784, “4E-BPs require non-canonical 4E-binding motifs and a lateral surface of eIF4E to repress translation” (Nature Communications, 2014).
No end group written: not given here.

Molecular target: T1, eIF4E–eIF4G complex (eIF4E WT; eIF4G residues 578–650) (Drosophila melanogaster, UniProt P48598)
T1 construct: full-length eIF4E (WT or the II-AA mutant) containing an N-terminal SNH-tag was coexpressed; made in house; host or cells: E. coli BL21 Star (DE3), coexpression
T1 sequence (P48598 1-248 isoform P48598-2): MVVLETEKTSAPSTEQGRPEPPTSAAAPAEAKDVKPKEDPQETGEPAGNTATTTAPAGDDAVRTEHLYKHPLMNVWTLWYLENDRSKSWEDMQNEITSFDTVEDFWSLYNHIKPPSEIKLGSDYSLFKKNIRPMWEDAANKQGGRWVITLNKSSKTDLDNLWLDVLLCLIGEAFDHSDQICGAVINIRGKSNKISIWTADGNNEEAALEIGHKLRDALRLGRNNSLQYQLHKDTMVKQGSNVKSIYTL
Test: Kinetic dissociation of eIF4E–eIF4G complexes by competitor
Type: biochemical
Settings: 1 μM complex on Strep-Tactin beads; fivefold molar excess of C+NC peptide (5 μM); CUP n=3, 4E-T n=2 averages
Protocol: To obtain the preassembled eIF4E–eIF4G complexes used in Figs 4 and 5d–g, full-length eIF4E (WT or the II-AA mutant) containing an N-terminal SNH-tag was coexpressed with an N-terminal GST-tagged eIF4G (residues 578–650). The cells were lysed by sonication in lysis buffer containing 50 mM HEPES (pH 7.2), 300 mM NaCl and 2 mM DTT. The complexes were purified from the cleared lysates using Protino Glutathione Agarose 4B beads (Machery-Nagel). The complex was further purified using a heparin column (HiTrap Heparin HP 5 ml, GE Healthcare) and a final size exclusion chromatography (Superdex 200 16/60, GE Healtcare) in 20 mM HEPES (pH 7.2), 200 mM NaCl and 2 mM DTT.
In the ‘kinetic assays’ shown in Fig. 5d–g, the purified complexes containing SHN-eIF4E and GST-eIF4G (578–650; 1 μM) were incubated with Strep-Tactin beads for 20 min. […] The eIF4E-associated proteins were pulled down, eluted and analyzed as described above. […]
The amounts of GST-eIF4G bound to eIF4E in each experimental condition were determined using the Image J software after Coomassie blue staining. […]
Each experiment was repeated at least twice. (e,f) Quantification of the experiments shown in Fig. 5d–g. […]
micrographs of fixed S2 cells expressing HA-4E-T and GFP-Tral. The localization of HA-4E-T was determined by indirect immunofluorescence using an anti-HA antibody. […]

**Q.** “CUP C+NC: CUP residues 325–376, eIF4E-binding region short, C-terminal GB1 (KSYTRSRLMDIRNGMFNALMHRSKESFVMPRIATCDDIELEGRLRRMNIWRT-GB1; UniProt Q9VMA3 325-376, looked up, fragment)” was tested. Which “time to 50% eIF4G dissociation” value did it give?
**A.** 2.5 ± 0.5 min
